According to the supplement of paper PMC10724198:
± gives the standard deviation of the averaged measurements.

What follows are sequences tested on Saccharomyces cerevisiae (assay: protein stability index of tFT-peptide fusion (C-terminal peptide) (PSI (0-1 scale)); higher = more stable (slower turnover)). Details: genetic background: wild type; temperature: 30 C.
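Also: PSI is a weighted mean of sequencing reads over stability bins, variants kept only with over 10 reads, mCherry proximal and sfGFP distal, peptide attached via GGGS linker.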

Sequence | protein stability index
VVMTAVEGMWDG | 0.5914 ± 0.0059
VVPLTPPLSAPR | 0.68 ± 0.031
VVPSMFPGAEVL | 0.691 ± 0.026
VVSFDPLFPSPR | 0.706 ± 0.037
VVSSSMGCCFRG | 0.659 ± 0.076
VVVGVGGCVYMG | 0.702 ± 0.06
VVVLCLFFSFFL | 0.5872 ± 0.0011
VVVSGGGEGFWL | 0.745 ± 0.027
VVWVCVRLPVRR | 0.53046 ± 0.00025
VVYGVSHEETST | 0.622 ± 0.018
VWAREGLGLRPP | 0.673 ± 0.11
VWDQTKKKKIKK | 0.704 ± 0.014
VWFSFGCGFFGR | 0.659 ± 0.061
VWGGVICFGLWM | 0.579 ± 0.02
VWGVFASPVVYR | 0.712 ± 0.049
VWGWGAWGGCGG | 0.719 ± 0.067
VWLFAESFCGCV | 0.597 ± 0.036
VWLGGGVRLGRL | 0.738 ± 0.059
VWLGTGGSYGFC | 0.825 ± 0.16
VWRSAMIRVPPC | 0.608 ± 0.054
VWVAGGVLWVLG | 0.5433 ± 0.0042
VWVSHPWYMAFL | 0.618 ± 0.066
VYGIAPPTRCFS | 0.649 ± 0.024

Sequence | protein stability index
VYKRNILHLASE | 0.681 ± 0.13
VYLSSSLFPPSS | 0.804 ± 0.042
VYLTGRCRRCLR | 0.702 ± 0.05
VYMDKKNKCIMK | 0.795 ± 0.15
VYRRWIKGKGRV | 0.675 ± 0.026
VYSPVEHLLATF | 0.59 ± 0.1
VYSRESMTGPVK | 0.7 ± 0.059
WAARLDISQSPI | 0.754 ± 0.011
WAERESLNGLSA | 0.718 ± 0.027
WAFGSTVSSGIV | 0.689 ± 0.017
WAGGFGGLGRDT | 0.744 ± 0.0089
WAGGGRVDDGGG | 0.643 ± 0.059
WAGLAQPKLVLH | 0.659 ± 0.024
WAPHLPQPSRCS | 0.743 ± 0.062
WARDLGAVAVQT | 0.518 ± 0.075
WAVGLNPSGLGT | 0.651 ± 0.063
WCMMSWMSQFRP | 0.653 ± 0.015
WCPGVSGVAGVF | 0.703 ± 0.056
WCPVHGSGGAPL | 0.674 ± 0.026
WCVCTFGGCDFP | 0.641 ± 0.012
WCVEGRATGRGW | 0.674 ± 0.018
WCVRWGVVGPGL | 0.634 ± 0.03
WDGAGGGFGLVV | 0.726 ± 0.061

Sequence | protein stability index
WDGGPTRSGGTG | 0.711 ± 0.013
WDNGQVRLLRYV | 0.593 ± 0.015
WEACLGRPEAGM | 0.724 ± 0.064
WEEKLEGTPTGG | 0.72 ± 0.072
WELVYLASLVQQ | 0.666 ± 0.055
WEVGVGRQDVEW | 0.7448 ± 0.0065
WFDGGGWLLFVV | 0.557 ± 0.011
WFDWLAIAFYLT | 0.526 ± 0.014
WFFVADVFKSWL | 0.704 ± 0.039
WFRPPSVPEEEY | 0.728 ± 0.048
WFSCYSGQSSNF | 0.757 ± 0.11
WFSGFLGEFNRF | 0.706 ± 0.063
WFVVRGGLSPGG | 0.695 ± 0.038
WGAGRGGAFFSG | 0.6576 ± 0.0062
WGCCRPERNCAV | 0.702 ± 0.02
WGFLCVALGRWV | 0.644 ± 0.038
WGGAGGGSGYGR | 0.68 ± 0.064
WGGCALEQGGAV | 0.736 ± 0.025
WGGFGLGVCAKC | 0.616 ± 0.072
WGGGGGGGPAGV | 0.6659 ± 0.0021
WGGGGLRVSCGT | 0.687 ± 0.093
WGGGGVLEVLLG | 0.531 ± 0.008
WGGGGWRGGGAR | 0.747 ± 0.033

Sequence | protein stability index
WGGGLGTAVVGV | 0.643 ± 0.021
WGGQRGWVEVWR | 0.683 ± 0.04
WGKGGWHRRWGC | 0.673 ± 0.0098
WGRRGSRGSWGA | 0.733 ± 0.028
WGVVGEWAGVGR | 0.747 ± 0.052
WGWGGHGIVRRE | 0.812 ± 0.14
WGYAFVGVVRGA | 0.661 ± 0.046
WGYEGGWGGHGT | 0.659 ± 0.025
WHRAGRSRMSWS | 0.777 ± 0.1
WIFRDHVLRRFP | 0.661 ± 0.024
WIISERDRTEQT | 0.733 ± 0.06
WIRTCMLIQGQT | 0.736 ± 0.021
WIRVYPDSSSPL | 0.8557 ± 0.002
WKEMRKKVGRGK | 0.696 ± 0.056
WKNTNSLRAPAL | 0.675 ± 0.016
WLAGKAGASHRG | 0.656 ± 0.0079
WLAIFFFSLSPF | 0.525 ± 0.055
WLFAFLCSCFCV | 0.71 ± 0.093
WLGFHFLFLWKC | 0.587 ± 0.1
WLIKKIKTKQTR | 0.758 ± 0.074
WLLGLRPTVSKE | 0.756 ± 0.068
WLRRFIFGSVVN | 0.657 ± 0.015
WPPRPPRPSSTL | 0.724 ± 0.011

Sequence | protein stability index
WPSCKVHSPSPS | 0.675 ± 0.016
WPWLHSVACLYS | 0.626 ± 0.09
WRAVVVSGTVAY | 0.578 ± 0.025
WRGGAWVRGCVL | 0.74 ± 0.04
WRGGWAETGGRE | 0.705 ± 0.013
WRRCSGVGVGSP | 0.663 ± 0.072
WRWCGLWDTRTY | 0.819 ± 0.0085
WSFMYLYFFDSW | 0.685 ± 0.086
WSGREGRGEWGW | 0.791 ± 0.024
WSIVVDDISWSV | 0.698 ± 0.013
WSLGPDVCGGVV | 0.708 ± 0.027
WSPGGGPLGLYE | 0.743 ± 0.018
WSRRGQRGKAWR | 0.733 ± 0.12
WSRSGGWEKYGV | 0.681 ± 0.024
WSRVQFFYFCWI | 0.547 ± 0.051
WSSTLFFFVGFS | 0.673 ± 0.056
WSSTPSCVPDLP | 0.721 ± 0.054
WSVVGVGGCGAR | 0.712 ± 0.041
WSVVRGGGCGAR | 0.697 ± 0.028
WTLELSGWLRSE | 0.77 ± 0.079
WVCRVWGGWLRG | 0.686 ± 0.044
WVGGGRAKAKRE | 0.696 ± 0.054
WVGRIRGMEGWM | 0.696 ± 0.037

Sequence | protein stability index
WVGSWYVATGEA | 0.754 ± 0.063
WVGYAWDGKFDL | 0.736 ± 0.11
WVREFSHKHVMS | 0.718 ± 0.01
WVRVSVPAVGRI | 0.7035 ± 0.0067
WVSDTNNTSRRK | 0.752 ± 0.051
WVSFVFCSLLGG | 0.588 ± 0.018
WVSHMHLGSFVH | 0.701 ± 0.09
WVSPALEALYRK | 0.764 ± 0.07
WWFGGETGVGGR | 0.712 ± 0.039
WWPDILWLNTGW | 0.701 ± 0.035
WYIEYLNYTTEQ | 0.697 ± 0.0089
WYKIQILDPNVG | 0.749 ± 0.011
WYLRSFVVSTLQ | 0.533 ± 0.065
YARVIFGGNWFS | 0.552 ± 0.02
YASRVLCVGLVL | 0.636 ± 0.094
YCGCSLSEMSWV | 0.741 ± 0.037
YCGPSAGREGGG | 0.771 ± 0.081
YCGSVCRPYSYL | 0.695 ± 0.057
YCLLCSFVGPPA | 0.731 ± 0.19
YCPPHRCEAECI | 0.657 ± 0.06
YCRGGGRAKREV | 0.693 ± 0.014
YDDSSLLFSNNL | 0.702 ± 0.0078
YDLGHYFSIPRL | 0.747 ± 0.011

Sequence | protein stability index
YDTGSRASWIAF | 0.714 ± 0.067
YDVGSKAVLTLE | 0.566 ± 0.0074
YEGVNLSWYRIR | 0.676 ± 0.045
YENFHTRFAVGV | 0.504 ± 0.037
YEPNYKEKKTQY | 0.69 ± 0.017
YFAQCLDFFSLV | 0.663 ± 0.019
YFCGRGSVLLVT | 0.56 ± 0.014
YFGPSPTRPPVP | 0.7225 ± 0.0015
YFLPESKIGRSG | 0.705 ± 0.023
YFPFPPPLLSPP | 0.766 ± 0.02
YGCVSPVAGFAN | 0.7254 ± 0.0069
YGGGGWRGVALG | 0.65 ± 0.043
YGVFALFLSSLS | 0.576 ± 0.056
YHDVRSLGPSRT | 0.666 ± 0.04
YIKAPCMRQSGG | 0.704 ± 0.019
YILPTPKAFRSF | 0.738 ± 0.17
YKNRKYNGKIRI | 0.585 ± 0.18
YLCLPPALISRI | 0.656 ± 0.029
YLDTVALLSRVL | 0.569 ± 0.027
YLFPFLCFSPPP | 0.702 ± 0.072
YLGTETSLTSLK | 0.786 ± 0.088
YLLKRSQSLLII | 0.5 ± 0.014
